Results on seven molecules are retold here after patent US10647739B2, “Flavonoids O-A-glucosylated on the B cycle, method for the production thereof and uses” (Institut National de la Recherche Agronomique, priority 2014, dated 2020).

Experiment [1] is described as follows: naringenin glucosylation acceptor reaction with recombinant glucansucrases (microplate screening). The format is biochemical. The following applies: sucrose 146 mM, naringenin 5 mM, 3% DMSO, 30° C., 24 h; HPLC-UV 340 nm peak areas. The method, then: (§1) The enzymatic extracts obtained are used to carry out the flavonoid glucosylation enzymatic screening reactions. The enzymatic activity of each centrifuged cell lysate is evaluated in the microplate format, by final weight after 30 minutes incubation in the presence of a final concentration of 146 mM of sucrose, by assaying the reducing sugars with 3,5-dinitrosalicylic acid (DNS). Finally, after dilution in ultrapure water, the absorbance is read at 540 nm.
(§2) The flavonoid acceptor reactions are then carried out in deep-well microplates, in a volume of 300 μl, at final concentrations of sucrose of 146 mM and of flavonoid of 2.5 mM (apigenin) or 5 mM (naringenin) (initially dissolved in 100% DMSO), and 140 μl of centrifuged cell lysate.
(§3) The final DMSO concentration in the reaction medium is 3% (v/v).
(§4) The incubation is carried out at 30° C. and at 700 rpm. After 24 hours, the enzymes are denatured at 95° C. for 15 minutes. These microplates are stored at −80° C. with a view to rapid evaluation of the flavonoid glucosylation by liquid-phase chromatography coupled to mass spectrometry (HPLC-MS or LC-MS).
(§5) With a view to their analyses by HPLC-MS, the extensively homogenized reaction media are diluted to 1/30th in DMSO. The separation of the flavonoids and of their glucosylated forms is carried out in reverse phase with a ProntoSlL Eurobond® 53×3.0 mm 120-3-C18-AQ column (porosity of 120 Å, particle size of 3 μm, C18 grafting, Bischoff Chromatography, Germany).
(§6) The flavonoid glucosylation efficiency was determined from the following formula: Glucosylation efficiency=(Σ(area of the peak of glucosylated flavonoid(s)))/(Σ(area of the peak of glucosylated flavonoid(s))+area of the peak of residual aglycone flavonoid)×100
The flavonoid glucosylation efficiency was determined from the formula set out in example 2. The flavonoid glucosylation efficiencies, expressed as a percentage, were calculated from the areas of the peaks of the various products analyzed, as described in example 1, by HPLC with a UV detector (λ340 nm), after 24 h of reaction.

Experiment [2] in a line: apigenin glucosylation acceptor reaction with recombinant glucansucrases (microplate screening). The format is biochemical. The note with it: sucrose 146 mM, apigenin 2.5 mM, 3% DMSO, 30° C., 24 h; HPLC-UV 340 nm peak areas. The method, then: as §1, §2, §3, §4, §5, §6
The flavonoid glucosylation efficiencies, expressed as a percentage, were calculated from the areas of the peaks of the various products analyzed, as described in example 1, by HPLC with a UV detector (340 nm) after 24 h of reaction.

B1: V331N: ASNp amylosucrase single mutant (protein, UniProt Q9ZEU2 1-636, looked up, variant V331N)
Amylosucrase: MLTPTQQVGLILQYLKTRILDIYTPEQRAGIEKSEDWRQFSRRMDTHFPKLMNELDSVYGNNEALLPMLEMLLAQAWQSYSQRNSSLKDIDIARENNPDWILSNKQVGGVCYVDLFAGDLKGLKDKIPYFQELGLTYLHLMPLFKCPEGKSDGGYAVSSYRDVNPALGTIGDLREVIAALHEAGISAVVDFIFNHTSNEHEWAQRCAAGDPLFDNFYYIFPDRRMPDQYDRTLREIFPDQHPGGFSQLEDGRWVWTTFNSFQWDLNYSNPWVFRAMAGEMLFLANLGVDILRMDAVAFIWKQMGTSCENLPQAHALIRAFNAVMRIAAPANFFKSEAIVHPDQVVQYIGQDECQIGYNPLQMALLWNTLATREVNLLHQALTYRHNLPEHTAWVNYVRSHDDIGWTFADEDAAYLGISGYDHRQFLNRFFVNRFDGSFARGVPFQYNPSTGDCRVSGTAAALVGLAQDDPHAVDRIKLLYSIALSTGGLPLIYLGDEVGTLNDDDWSQDSNKSDDSRWAHRPRYNEALYAQRNDPSTAAGQIYQGLRHMIAVRQSNPRFDGGRLVTFNTNNKHIIGYIRNNALLAFGNFSEYPQTVTAHTLQAMPFKAHDLIGGKTVSLNQDLTLQPYQVMWLEIA
Take B1: the naringenin glucosylation efficiency in experiment [1] turned out to be 0.0%. Also, the apigenin glucosylation efficiency in experiment [2] turned out to be 1.0%.

B2: V331P: ASNp amylosucrase single mutant (protein, UniProt Q9ZEU2 1-636, looked up, variant V331P)
Amylosucrase: MLTPTQQVGLILQYLKTRILDIYTPEQRAGIEKSEDWRQFSRRMDTHFPKLMNELDSVYGNNEALLPMLEMLLAQAWQSYSQRNSSLKDIDIARENNPDWILSNKQVGGVCYVDLFAGDLKGLKDKIPYFQELGLTYLHLMPLFKCPEGKSDGGYAVSSYRDVNPALGTIGDLREVIAALHEAGISAVVDFIFNHTSNEHEWAQRCAAGDPLFDNFYYIFPDRRMPDQYDRTLREIFPDQHPGGFSQLEDGRWVWTTFNSFQWDLNYSNPWVFRAMAGEMLFLANLGVDILRMDAVAFIWKQMGTSCENLPQAHALIRAFNAVMRIAAPAPFFKSEAIVHPDQVVQYIGQDECQIGYNPLQMALLWNTLATREVNLLHQALTYRHNLPEHTAWVNYVRSHDDIGWTFADEDAAYLGISGYDHRQFLNRFFVNRFDGSFARGVPFQYNPSTGDCRVSGTAAALVGLAQDDPHAVDRIKLLYSIALSTGGLPLIYLGDEVGTLNDDDWSQDSNKSDDSRWAHRPRYNEALYAQRNDPSTAAGQIYQGLRHMIAVRQSNPRFDGGRLVTFNTNNKHIIGYIRNNALLAFGNFSEYPQTVTAHTLQAMPFKAHDLIGGKTVSLNQDLTLQPYQVMWLEIA
As for B2, in experiment [1], the naringenin glucosylation efficiency came out at 0.0%. The apigenin glucosylation efficiency in experiment [2] was determined as 0.0%.

B3: V331T: ASNp amylosucrase single mutant (protein, UniProt Q9ZEU2 1-636, looked up, variant V331T)
Amylosucrase: MLTPTQQVGLILQYLKTRILDIYTPEQRAGIEKSEDWRQFSRRMDTHFPKLMNELDSVYGNNEALLPMLEMLLAQAWQSYSQRNSSLKDIDIARENNPDWILSNKQVGGVCYVDLFAGDLKGLKDKIPYFQELGLTYLHLMPLFKCPEGKSDGGYAVSSYRDVNPALGTIGDLREVIAALHEAGISAVVDFIFNHTSNEHEWAQRCAAGDPLFDNFYYIFPDRRMPDQYDRTLREIFPDQHPGGFSQLEDGRWVWTTFNSFQWDLNYSNPWVFRAMAGEMLFLANLGVDILRMDAVAFIWKQMGTSCENLPQAHALIRAFNAVMRIAAPATFFKSEAIVHPDQVVQYIGQDECQIGYNPLQMALLWNTLATREVNLLHQALTYRHNLPEHTAWVNYVRSHDDIGWTFADEDAAYLGISGYDHRQFLNRFFVNRFDGSFARGVPFQYNPSTGDCRVSGTAAALVGLAQDDPHAVDRIKLLYSIALSTGGLPLIYLGDEVGTLNDDDWSQDSNKSDDSRWAHRPRYNEALYAQRNDPSTAAGQIYQGLRHMIAVRQSNPRFDGGRLVTFNTNNKHIIGYIRNNALLAFGNFSEYPQTVTAHTLQAMPFKAHDLIGGKTVSLNQDLTLQPYQVMWLEIA
As to B3, the naringenin glucosylation efficiency in experiment [1] is reported as 7.2%. Besides, the apigenin glucosylation efficiency in experiment [2] amounted to 0.0%.

B4: V331R: ASNp amylosucrase single mutant (protein, UniProt Q9ZEU2 1-636, looked up, variant V331R)
Amylosucrase: MLTPTQQVGLILQYLKTRILDIYTPEQRAGIEKSEDWRQFSRRMDTHFPKLMNELDSVYGNNEALLPMLEMLLAQAWQSYSQRNSSLKDIDIARENNPDWILSNKQVGGVCYVDLFAGDLKGLKDKIPYFQELGLTYLHLMPLFKCPEGKSDGGYAVSSYRDVNPALGTIGDLREVIAALHEAGISAVVDFIFNHTSNEHEWAQRCAAGDPLFDNFYYIFPDRRMPDQYDRTLREIFPDQHPGGFSQLEDGRWVWTTFNSFQWDLNYSNPWVFRAMAGEMLFLANLGVDILRMDAVAFIWKQMGTSCENLPQAHALIRAFNAVMRIAAPARFFKSEAIVHPDQVVQYIGQDECQIGYNPLQMALLWNTLATREVNLLHQALTYRHNLPEHTAWVNYVRSHDDIGWTFADEDAAYLGISGYDHRQFLNRFFVNRFDGSFARGVPFQYNPSTGDCRVSGTAAALVGLAQDDPHAVDRIKLLYSIALSTGGLPLIYLGDEVGTLNDDDWSQDSNKSDDSRWAHRPRYNEALYAQRNDPSTAAGQIYQGLRHMIAVRQSNPRFDGGRLVTFNTNNKHIIGYIRNNALLAFGNFSEYPQTVTAHTLQAMPFKAHDLIGGKTVSLNQDLTLQPYQVMWLEIA
For the molecule B4, the naringenin glucosylation efficiency in experiment [1] was found to be 0.0%. The apigenin glucosylation efficiency in experiment [2] was 0.2%.

B5: V331W: ASNp amylosucrase single mutant (protein, UniProt Q9ZEU2 1-636, looked up, variant V331W)
Amylosucrase: MLTPTQQVGLILQYLKTRILDIYTPEQRAGIEKSEDWRQFSRRMDTHFPKLMNELDSVYGNNEALLPMLEMLLAQAWQSYSQRNSSLKDIDIARENNPDWILSNKQVGGVCYVDLFAGDLKGLKDKIPYFQELGLTYLHLMPLFKCPEGKSDGGYAVSSYRDVNPALGTIGDLREVIAALHEAGISAVVDFIFNHTSNEHEWAQRCAAGDPLFDNFYYIFPDRRMPDQYDRTLREIFPDQHPGGFSQLEDGRWVWTTFNSFQWDLNYSNPWVFRAMAGEMLFLANLGVDILRMDAVAFIWKQMGTSCENLPQAHALIRAFNAVMRIAAPAWFFKSEAIVHPDQVVQYIGQDECQIGYNPLQMALLWNTLATREVNLLHQALTYRHNLPEHTAWVNYVRSHDDIGWTFADEDAAYLGISGYDHRQFLNRFFVNRFDGSFARGVPFQYNPSTGDCRVSGTAAALVGLAQDDPHAVDRIKLLYSIALSTGGLPLIYLGDEVGTLNDDDWSQDSNKSDDSRWAHRPRYNEALYAQRNDPSTAAGQIYQGLRHMIAVRQSNPRFDGGRLVTFNTNNKHIIGYIRNNALLAFGNFSEYPQTVTAHTLQAMPFKAHDLIGGKTVSLNQDLTLQPYQVMWLEIA
As to B5, the naringenin glucosylation efficiency in experiment [1] stood at 0.0%. In experiment [2], the apigenin glucosylation efficiency turned out to be 0.2%.

B6: V331S: ASNp amylosucrase single mutant (protein, UniProt Q9ZEU2 1-636, looked up, variant V331S)
Amylosucrase: MLTPTQQVGLILQYLKTRILDIYTPEQRAGIEKSEDWRQFSRRMDTHFPKLMNELDSVYGNNEALLPMLEMLLAQAWQSYSQRNSSLKDIDIARENNPDWILSNKQVGGVCYVDLFAGDLKGLKDKIPYFQELGLTYLHLMPLFKCPEGKSDGGYAVSSYRDVNPALGTIGDLREVIAALHEAGISAVVDFIFNHTSNEHEWAQRCAAGDPLFDNFYYIFPDRRMPDQYDRTLREIFPDQHPGGFSQLEDGRWVWTTFNSFQWDLNYSNPWVFRAMAGEMLFLANLGVDILRMDAVAFIWKQMGTSCENLPQAHALIRAFNAVMRIAAPASFFKSEAIVHPDQVVQYIGQDECQIGYNPLQMALLWNTLATREVNLLHQALTYRHNLPEHTAWVNYVRSHDDIGWTFADEDAAYLGISGYDHRQFLNRFFVNRFDGSFARGVPFQYNPSTGDCRVSGTAAALVGLAQDDPHAVDRIKLLYSIALSTGGLPLIYLGDEVGTLNDDDWSQDSNKSDDSRWAHRPRYNEALYAQRNDPSTAAGQIYQGLRHMIAVRQSNPRFDGGRLVTFNTNNKHIIGYIRNNALLAFGNFSEYPQTVTAHTLQAMPFKAHDLIGGKTVSLNQDLTLQPYQVMWLEIA
As to B6, in experiment [1], the naringenin glucosylation efficiency is listed as 6.7%. The apigenin glucosylation efficiency in experiment [2] is on record as 0.4%.

B7: V331Q: ASNp amylosucrase single mutant (protein, UniProt Q9ZEU2 1-636, looked up, variant V331Q)
Amylosucrase: MLTPTQQVGLILQYLKTRILDIYTPEQRAGIEKSEDWRQFSRRMDTHFPKLMNELDSVYGNNEALLPMLEMLLAQAWQSYSQRNSSLKDIDIARENNPDWILSNKQVGGVCYVDLFAGDLKGLKDKIPYFQELGLTYLHLMPLFKCPEGKSDGGYAVSSYRDVNPALGTIGDLREVIAALHEAGISAVVDFIFNHTSNEHEWAQRCAAGDPLFDNFYYIFPDRRMPDQYDRTLREIFPDQHPGGFSQLEDGRWVWTTFNSFQWDLNYSNPWVFRAMAGEMLFLANLGVDILRMDAVAFIWKQMGTSCENLPQAHALIRAFNAVMRIAAPAQFFKSEAIVHPDQVVQYIGQDECQIGYNPLQMALLWNTLATREVNLLHQALTYRHNLPEHTAWVNYVRSHDDIGWTFADEDAAYLGISGYDHRQFLNRFFVNRFDGSFARGVPFQYNPSTGDCRVSGTAAALVGLAQDDPHAVDRIKLLYSIALSTGGLPLIYLGDEVGTLNDDDWSQDSNKSDDSRWAHRPRYNEALYAQRNDPSTAAGQIYQGLRHMIAVRQSNPRFDGGRLVTFNTNNKHIIGYIRNNALLAFGNFSEYPQTVTAHTLQAMPFKAHDLIGGKTVSLNQDLTLQPYQVMWLEIA
Turning to B7, the naringenin glucosylation efficiency in experiment [1] came out at 6.8%. In addition, in experiment [2], the apigenin glucosylation efficiency was determined as 0.2%.
